Source: WO2011158973A1 (dated 2011)

T1: human fibrinogen (human, UniProt P02671 20-629; P02675 31-491; P02679 27-437, limits assumed)
T1 construct: Bought (Sigma), coated on 96-well plates at 50 ug/ml in TBS pH 8.5; also called fibrinogen (Sigma) plate; fibrinogen (2)
T1 sequence (looked up) 1: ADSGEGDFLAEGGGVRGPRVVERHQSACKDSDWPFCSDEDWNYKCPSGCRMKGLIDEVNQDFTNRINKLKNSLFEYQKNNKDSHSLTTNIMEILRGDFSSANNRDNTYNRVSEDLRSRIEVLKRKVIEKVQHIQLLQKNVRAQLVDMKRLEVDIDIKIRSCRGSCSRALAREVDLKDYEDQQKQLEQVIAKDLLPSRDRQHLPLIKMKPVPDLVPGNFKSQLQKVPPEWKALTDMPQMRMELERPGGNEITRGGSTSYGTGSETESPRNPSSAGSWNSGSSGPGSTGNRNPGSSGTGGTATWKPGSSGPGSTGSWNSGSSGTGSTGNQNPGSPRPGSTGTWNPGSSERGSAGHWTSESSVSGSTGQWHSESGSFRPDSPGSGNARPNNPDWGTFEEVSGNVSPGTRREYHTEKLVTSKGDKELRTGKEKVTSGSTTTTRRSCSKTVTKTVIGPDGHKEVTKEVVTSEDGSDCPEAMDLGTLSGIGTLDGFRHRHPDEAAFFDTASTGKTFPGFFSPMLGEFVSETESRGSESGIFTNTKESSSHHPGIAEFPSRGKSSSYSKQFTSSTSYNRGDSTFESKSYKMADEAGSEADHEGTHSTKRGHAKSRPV
T1 sequence (looked up) 2: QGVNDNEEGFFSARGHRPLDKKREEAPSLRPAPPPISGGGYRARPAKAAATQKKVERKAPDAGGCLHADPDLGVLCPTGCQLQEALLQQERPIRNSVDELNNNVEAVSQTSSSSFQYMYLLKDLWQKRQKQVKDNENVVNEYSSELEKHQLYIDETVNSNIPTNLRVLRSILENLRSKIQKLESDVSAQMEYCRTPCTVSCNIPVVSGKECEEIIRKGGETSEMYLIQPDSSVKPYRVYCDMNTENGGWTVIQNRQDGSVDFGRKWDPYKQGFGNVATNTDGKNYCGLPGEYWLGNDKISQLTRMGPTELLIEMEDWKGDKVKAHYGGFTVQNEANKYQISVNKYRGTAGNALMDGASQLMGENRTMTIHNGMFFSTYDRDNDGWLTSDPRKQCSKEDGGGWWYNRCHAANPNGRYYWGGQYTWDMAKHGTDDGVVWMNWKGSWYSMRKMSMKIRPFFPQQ
T1 sequence (looked up) 3: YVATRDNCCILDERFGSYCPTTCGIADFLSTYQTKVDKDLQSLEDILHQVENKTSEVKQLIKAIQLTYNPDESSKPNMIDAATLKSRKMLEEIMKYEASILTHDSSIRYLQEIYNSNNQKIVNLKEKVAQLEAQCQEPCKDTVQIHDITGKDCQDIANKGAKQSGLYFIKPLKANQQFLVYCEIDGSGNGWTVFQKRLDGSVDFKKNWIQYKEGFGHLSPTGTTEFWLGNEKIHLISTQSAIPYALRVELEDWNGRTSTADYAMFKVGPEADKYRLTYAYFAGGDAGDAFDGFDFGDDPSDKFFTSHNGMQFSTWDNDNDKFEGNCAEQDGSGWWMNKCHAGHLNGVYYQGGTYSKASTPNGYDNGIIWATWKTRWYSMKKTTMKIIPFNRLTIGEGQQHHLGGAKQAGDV

T2: human fibrin (human, UniProt P02671 36-629; P02675 45-491; P02679 27-437, limits assumed)
T2 construct: Made on the plate: fibrinogen (Sigma) coated at 50 ug/ml, dried, then treated with 10 NIH U/ml human thrombin with 10 mM CaCl2 and 7 mM L-cysteine; also called fibrin plate; fibrin (1)
T2 sequence (looked up) 1: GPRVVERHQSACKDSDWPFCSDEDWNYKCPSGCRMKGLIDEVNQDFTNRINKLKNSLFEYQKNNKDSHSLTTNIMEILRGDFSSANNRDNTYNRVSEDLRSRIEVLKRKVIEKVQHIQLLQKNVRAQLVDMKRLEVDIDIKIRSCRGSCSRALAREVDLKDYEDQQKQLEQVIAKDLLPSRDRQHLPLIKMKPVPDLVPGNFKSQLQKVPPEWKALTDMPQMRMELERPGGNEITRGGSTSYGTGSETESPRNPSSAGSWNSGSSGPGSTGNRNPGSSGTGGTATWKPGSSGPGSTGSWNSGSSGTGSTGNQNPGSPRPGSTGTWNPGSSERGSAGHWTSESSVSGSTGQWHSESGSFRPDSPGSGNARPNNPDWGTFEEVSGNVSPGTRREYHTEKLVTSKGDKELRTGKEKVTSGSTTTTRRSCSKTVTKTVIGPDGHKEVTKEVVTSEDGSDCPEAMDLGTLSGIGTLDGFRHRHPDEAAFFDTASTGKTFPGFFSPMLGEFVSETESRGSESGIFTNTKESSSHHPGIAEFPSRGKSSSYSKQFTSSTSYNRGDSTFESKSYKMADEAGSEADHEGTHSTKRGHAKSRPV
T2 sequence (looked up) 2: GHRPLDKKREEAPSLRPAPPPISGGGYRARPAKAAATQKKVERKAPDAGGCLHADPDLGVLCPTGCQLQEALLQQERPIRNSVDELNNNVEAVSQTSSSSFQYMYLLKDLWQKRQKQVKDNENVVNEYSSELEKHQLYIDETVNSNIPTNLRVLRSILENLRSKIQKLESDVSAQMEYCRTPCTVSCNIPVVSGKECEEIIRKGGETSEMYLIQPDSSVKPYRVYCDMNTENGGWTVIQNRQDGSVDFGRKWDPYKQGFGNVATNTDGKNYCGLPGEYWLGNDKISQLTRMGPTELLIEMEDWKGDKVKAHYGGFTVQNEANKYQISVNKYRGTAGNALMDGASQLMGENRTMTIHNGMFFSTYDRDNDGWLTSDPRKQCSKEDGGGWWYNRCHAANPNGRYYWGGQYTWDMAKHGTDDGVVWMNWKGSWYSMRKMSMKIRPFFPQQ
T2 sequence (looked up) 3: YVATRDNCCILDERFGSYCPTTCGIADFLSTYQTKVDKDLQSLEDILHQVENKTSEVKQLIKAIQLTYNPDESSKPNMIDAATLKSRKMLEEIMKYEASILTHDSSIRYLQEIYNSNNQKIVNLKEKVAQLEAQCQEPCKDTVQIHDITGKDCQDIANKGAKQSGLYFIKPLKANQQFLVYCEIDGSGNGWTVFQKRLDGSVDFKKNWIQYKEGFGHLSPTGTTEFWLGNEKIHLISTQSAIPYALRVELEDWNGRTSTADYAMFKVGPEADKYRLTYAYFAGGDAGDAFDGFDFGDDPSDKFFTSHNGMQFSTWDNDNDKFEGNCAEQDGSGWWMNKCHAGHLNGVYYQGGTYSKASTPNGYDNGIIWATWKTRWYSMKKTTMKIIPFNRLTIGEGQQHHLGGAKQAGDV

T3: mouse fibrinogen (mouse, UniProt E9PV24 20-557; Q8K0E8 20-481; Q8VCM7 26-436, limits assumed)
T3 construct: also called fibrinogen (4)
T3 sequence (looked up) 1: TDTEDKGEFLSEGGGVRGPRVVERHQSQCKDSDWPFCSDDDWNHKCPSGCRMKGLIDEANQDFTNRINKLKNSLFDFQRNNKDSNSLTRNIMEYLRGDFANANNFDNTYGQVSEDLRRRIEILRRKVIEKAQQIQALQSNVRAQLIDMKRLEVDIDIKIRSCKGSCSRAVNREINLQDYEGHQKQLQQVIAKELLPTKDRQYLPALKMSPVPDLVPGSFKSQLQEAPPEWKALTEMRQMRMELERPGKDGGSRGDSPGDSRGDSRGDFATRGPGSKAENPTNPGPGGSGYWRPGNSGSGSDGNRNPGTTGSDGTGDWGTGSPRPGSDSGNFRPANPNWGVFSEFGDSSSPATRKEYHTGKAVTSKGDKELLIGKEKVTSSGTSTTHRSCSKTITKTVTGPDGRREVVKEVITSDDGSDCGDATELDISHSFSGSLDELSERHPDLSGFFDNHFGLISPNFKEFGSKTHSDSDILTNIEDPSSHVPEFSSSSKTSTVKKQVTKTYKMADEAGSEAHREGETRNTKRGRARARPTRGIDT
T3 sequence (looked up) 2: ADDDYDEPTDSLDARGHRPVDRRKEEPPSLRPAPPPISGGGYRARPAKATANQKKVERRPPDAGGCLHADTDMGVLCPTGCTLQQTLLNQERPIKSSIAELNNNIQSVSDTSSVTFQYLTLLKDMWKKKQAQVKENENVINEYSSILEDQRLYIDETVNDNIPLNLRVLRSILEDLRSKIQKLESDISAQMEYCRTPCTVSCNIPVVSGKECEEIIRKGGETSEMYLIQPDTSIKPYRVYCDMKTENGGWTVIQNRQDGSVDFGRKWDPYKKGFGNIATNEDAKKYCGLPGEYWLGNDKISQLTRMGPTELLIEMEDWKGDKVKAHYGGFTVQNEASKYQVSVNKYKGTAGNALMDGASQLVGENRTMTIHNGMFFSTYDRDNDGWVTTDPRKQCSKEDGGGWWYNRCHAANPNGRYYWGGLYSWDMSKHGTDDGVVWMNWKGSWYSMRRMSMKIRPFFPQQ
T3 sequence (looked up) 3: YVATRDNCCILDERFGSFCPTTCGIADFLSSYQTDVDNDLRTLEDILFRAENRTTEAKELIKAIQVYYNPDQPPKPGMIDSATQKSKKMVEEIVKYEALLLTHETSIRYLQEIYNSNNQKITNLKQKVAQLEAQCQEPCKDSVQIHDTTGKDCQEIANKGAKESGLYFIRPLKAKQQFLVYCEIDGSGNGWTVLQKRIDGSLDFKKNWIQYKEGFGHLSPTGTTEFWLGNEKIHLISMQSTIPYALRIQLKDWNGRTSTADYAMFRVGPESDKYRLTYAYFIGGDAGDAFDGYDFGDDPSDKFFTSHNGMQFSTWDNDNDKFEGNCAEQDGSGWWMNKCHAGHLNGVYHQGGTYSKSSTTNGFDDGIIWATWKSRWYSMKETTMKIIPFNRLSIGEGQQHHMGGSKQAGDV


What was measured:
human fibrinogen [1] = molecular target: T1, human fibrinogen; assay: ELISA, hybridoma culture supernatant (undiluted) on fibrinogen plate; selection of the clone
human fibrin [2] = molecular target: T2, human fibrin; assay: ELISA, hybridoma culture supernatant (undiluted) on fibrin plate; selection of the clone
mouse fibrinogen [3] = molecular target: T3, mouse fibrinogen; assay: ELISA, hybridoma 102-10 culture supernatant on fibrinogen plate (Fig. 1C)
mouse fibrinogen [4] = molecular target: T3, mouse fibrinogen; assay: ELISA, purified chimeric antibody on fibrinogen plate (Fig. 3)
human fibrinogen [5] = molecular target: T1, human fibrinogen; assay: as above
human fibrin [6] = molecular target: T2, human fibrin; assay: ELISA, purified chimeric antibody on fibrin plate (Fig. 3)

| Binder | binding result (human fibrinogen [1]) | binding result (human fibrin [2]) | binding result (mouse fibrinogen [3]) | binding result (mouse fibrinogen [4]) | binding result (human fibrinogen [5]) | binding result (human fibrin [6]) |
| --- | --- | --- | --- | --- | --- | --- |
| mouse anti-fibrin IgM antibody produced by hybridoma cell line 102-10 (accession number NITE BP-923) (antibody, V domains shown, Mouse IgM; Tested as hybridoma culture supernatant in ELISA; also called clone 102-10; mouse IgM antibody) VH: QIQLVQSGPELKKPGETVKISCKASGYTFTNYGMNWVKQAPGKGLKWMGWINTYTGEATYADDFKGRFAFSLETSANTAYVQINNLKNEDTATYFCARLMDYWGQGTSVTVSS VL: DIQMTQSPSSLSASLGGKVTITCKASQDINKYIAWFQHKPGKGPRLLIHYTSTLQPGIPSRFSGSGSGRDYSFSISNLEPEDLATYYCLQYDNLTWTFGGGTKLEIK | no binding | binds | no binding |  |  |  |
| human type anti-fibrin chimeric antibody (human type IgG clone 102-10Hu) (antibody, V domains shown, made in CHO cells, purified on Protein G and hydroxyapatite; They may include a leader peptide; no cleavage site is stated; also called human chimeric antibody; human chimeric anti-fibrin IgG) VH: QIQLVQSGPELKKPGETVKISCKASGYTFTNYGMNWVKQAPGKGLKWMGWINTYTGEATYADDFKGRFAFSLETSANTAYVQINNLKNEDTATYFCARLMDYWGQGTSVTVSS VL: DIQMTQSPSSLSASLGGKVTITCKASQDINKYIAWFQHKPGKGPRLLIHYTSTLQPGIPSRFSGSGSGRDYSFSISNLEPEDLATYYCLQYDNLTWTFGGGTKLEIK |  |  |  | no binding | no binding | binds |
